Source: patent US20060251655A1

Molecular target: von Willebrand factor (vWF), prepared from plasma cryo fraction, P04275

| Protein | vWF cleaving activity (SDS-PAGE) |
| --- | --- |
| W897stop (C-terminal deletion variant of ADAMTS-13, FLAG appended) (protein) PSHFQQSCLQALEPQAVSSYLSPGAPLKGRPPSPGFQRQRQRQRRAAGGILHLELLVAVGPDVFQAHQEDTERYVLTNLNIGAELLRDPSLGAQFRVHLVKMVILTEPEGAPNITANLTSSLLSVCGWSQTINPEDDTDPGHADLVLYITRFDLELPDGNRQVRGVTQLGGACSPTWSCLITEDTGFDLGVTIAHEIGHSFGLEHDGAPGSGCGPSGHVMASDGAAPRAGLAWSPCSRRQLLSLLSAGRARCVWDPPRPQPGSAGHPPDAQPGLYYSANEQCRVAFGPKAVACTFAREHLDMCQALSCHTDPLDQSSCSRLLVPLLDGTECGVEKWCSKGRCRSLVELTPIAAVHGRWSSWGPRSPCSRSCGGGVVTRRRQCNNPRPAFGGRACVGADLQAEMCNTQACEKTQLEFMSQQCARTDGQPLRSSPGGASFYHWGAAVPHSQGDALCRHMCRAIGESFIMKRGDSFLDGTRCMPSGPREDGTLSLCVSGSCRTFGCDGRMDSQQVWDRCQVCGGDNSTCSPRKGSFTAGRAREYVTFLTVTPNLTSVYIANHRPLFTHLAVRIGGRYVVAGKMSISPNTTYPSLLEDGRVEYRVALTEDRLPRLEEIRIWGPLQEDADIQVYRRYGEEYGNLTRPDITFTYFQPKPRQAWVWAAVRGPCSVSCGAGLRWVNYSCLDQARKELVETVQCQGSQQPPAWPEACVLEPCPPYWAVGDFGPCSASCGGGLRERPVRCVEAQGSLLKTLPPARCRAGAQQPAVALETCNPQPCPARWEVSEPSSCTSAGGAGLALENETCVPGADGLEAPVTEGPGSVDEKLPAPEPCVGMSCPPGWGHLDATSAGEKAPSPWGSIRTGAQAAHVWDYKDDDDK | vWF cleaving activity was clearly recognized from the full-length molecule to W688stop molecule |
| W808stop (C-terminal deletion variant of ADAMTS-13, FLAG appended) (protein) PSHFQQSCLQALEPQAVSSYLSPGAPLKGRPPSPGFQRQRQRQRRAAGGILHLELLVAVGPDVFQAHQEDTERYVLTNLNIGAELLRDPSLGAQFRVHLVKMVILTEPEGAPNITANLTSSLLSVCGWSQTINPEDDTDPGHADLVLYITRFDLELPDGNRQVRGVTQLGGACSPTWSCLITEDTGFDLGVTIAHEIGHSFGLEHDGAPGSGCGPSGHVMASDGAAPRAGLAWSPCSRRQLLSLLSAGRARCVWDPPRPQPGSAGHPPDAQPGLYYSANEQCRVAFGPKAVACTFAREHLDMCQALSCHTDPLDQSSCSRLLVPLLDGTECGVEKWCSKGRCRSLVELTPIAAVHGRWSSWGPRSPCSRSCGGGVVTRRRQCNNPRPAFGGRACVGADLQAEMCNTQACEKTQLEFMSQQCARTDGQPLRSSPGGASFYHWGAAVPHSQGDALCRHMCRAIGESFIMKRGDSFLDGTRCMPSGPREDGTLSLCVSGSCRTFGCDGRMDSQQVWDRCQVCGGDNSTCSPRKGSFTAGRAREYVTFLTVTPNLTSVYIANHRPLFTHLAVRIGGRYVVAGKMSISPNTTYPSLLEDGRVEYRVALTEDRLPRLEEIRIWGPLQEDADIQVYRRYGEEYGNLTRPDITFTYFQPKPRQAWVWAAVRGPCSVSCGAGLRWVNYSCLDQARKELVETVQCQGSQQPPAWPEACVLEPCPPYWAVGDFGPCSASCGGGLRERPVRCVEAQGSLLKTLPPARCRAGAQQPAVALETCNPQPCPARWDYKDDDDK | vWF cleaving activity was clearly recognized from the full-length molecule to W688stop molecule |
| W746stop (C-terminal deletion variant of ADAMTS-13, FLAG appended) (protein) PSHFQQSCLQALEPQAVSSYLSPGAPLKGRPPSPGFQRQRQRQRRAAGGILHLELLVAVGPDVFQAHQEDTERYVLTNLNIGAELLRDPSLGAQFRVHLVKMVILTEPEGAPNITANLTSSLLSVCGWSQTINPEDDTDPGHADLVLYITRFDLELPDGNRQVRGVTQLGGACSPTWSCLITEDTGFDLGVTIAHEIGHSFGLEHDGAPGSGCGPSGHVMASDGAAPRAGLAWSPCSRRQLLSLLSAGRARCVWDPPRPQPGSAGHPPDAQPGLYYSANEQCRVAFGPKAVACTFAREHLDMCQALSCHTDPLDQSSCSRLLVPLLDGTECGVEKWCSKGRCRSLVELTPIAAVHGRWSSWGPRSPCSRSCGGGVVTRRRQCNNPRPAFGGRACVGADLQAEMCNTQACEKTQLEFMSQQCARTDGQPLRSSPGGASFYHWGAAVPHSQGDALCRHMCRAIGESFIMKRGDSFLDGTRCMPSGPREDGTLSLCVSGSCRTFGCDGRMDSQQVWDRCQVCGGDNSTCSPRKGSFTAGRAREYVTFLTVTPNLTSVYIANHRPLFTHLAVRIGGRYVVAGKMSISPNTTYPSLLEDGRVEYRVALTEDRLPRLEEIRIWGPLQEDADIQVYRRYGEEYGNLTRPDITFTYFQPKPRQAWVWAAVRGPCSVSCGAGLRWVNYSCLDQARKELVETVQCQGSQQPPAWPEACVLEPCPPYWDYKDDDDK | vWF cleaving activity was clearly recognized from the full-length molecule to W688stop molecule |
